We go through 1 substance from article PMC6989304.

The assay has as its target Pinhead-HA (secreted, in conditioned medium of HEK293T cells) (zebrafish). As to the kind of experiment: reducing and non-reducing SDS-PAGE with immunoblot.

The stoichiometry N is the number of molecules, sites or subunits per partner or assembly. “Pinhead-HA (secreted, in conditioned medium of HEK293T cells) (ligand)” registered a stoichiometry N of 2.
